Laboratory results from paper PMC3691460 (The Journal of Cell Biology, 2013).
Values belong to the molecule of their own block, whether it stands above or below them.

Assays:
[1] = biological target: αIIbβ3 integrin headpiece (UniProt P08514); assay: crystal structure
[2] = tested on: αIIbβ3 headpiece ligand binding site; assay: Occupancy of ligand binding site by soaked RGD peptide; details: 10 mM GRGDSP, Mg/Ca (5 mM Mg/1 mM Ca), 24 h, closed headpiece crystals
α4β7 headpiece = details: EM; ref Yu et al., 2012; cited from earlier work
[3] = biological target: T1, αIIbβ3 integrin headpiece (UniProt P08514;P05106); assay: crystal structure
T1 sequence 1: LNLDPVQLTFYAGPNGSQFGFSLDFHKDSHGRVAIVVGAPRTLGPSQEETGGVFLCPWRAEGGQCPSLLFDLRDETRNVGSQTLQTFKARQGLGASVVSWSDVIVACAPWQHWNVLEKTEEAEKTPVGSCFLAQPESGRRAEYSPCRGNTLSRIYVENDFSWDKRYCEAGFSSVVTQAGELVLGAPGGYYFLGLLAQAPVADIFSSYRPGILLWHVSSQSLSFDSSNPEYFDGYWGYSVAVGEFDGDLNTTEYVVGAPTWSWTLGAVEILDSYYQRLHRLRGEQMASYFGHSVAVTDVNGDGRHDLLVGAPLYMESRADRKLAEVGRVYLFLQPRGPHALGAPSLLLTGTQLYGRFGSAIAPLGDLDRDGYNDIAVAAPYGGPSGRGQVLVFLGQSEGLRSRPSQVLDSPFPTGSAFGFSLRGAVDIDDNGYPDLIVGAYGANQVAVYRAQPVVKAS
T1 sequence 2: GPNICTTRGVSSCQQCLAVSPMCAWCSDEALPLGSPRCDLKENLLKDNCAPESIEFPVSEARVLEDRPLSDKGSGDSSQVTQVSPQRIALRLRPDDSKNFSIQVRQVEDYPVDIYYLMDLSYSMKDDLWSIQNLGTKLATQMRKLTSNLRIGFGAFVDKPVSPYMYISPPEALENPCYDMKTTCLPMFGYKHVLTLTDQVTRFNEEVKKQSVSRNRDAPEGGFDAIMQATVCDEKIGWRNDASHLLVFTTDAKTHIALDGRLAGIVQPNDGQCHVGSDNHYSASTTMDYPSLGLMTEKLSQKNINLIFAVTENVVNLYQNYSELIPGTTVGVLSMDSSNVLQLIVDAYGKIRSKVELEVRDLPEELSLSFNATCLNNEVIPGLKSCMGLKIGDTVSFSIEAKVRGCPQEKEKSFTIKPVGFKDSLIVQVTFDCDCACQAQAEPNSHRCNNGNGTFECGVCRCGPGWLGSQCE

[4] = biological target: T2, αIIb subunit β-propeller domain (UniProt P08514); assay: crystal structure
T2 sequence: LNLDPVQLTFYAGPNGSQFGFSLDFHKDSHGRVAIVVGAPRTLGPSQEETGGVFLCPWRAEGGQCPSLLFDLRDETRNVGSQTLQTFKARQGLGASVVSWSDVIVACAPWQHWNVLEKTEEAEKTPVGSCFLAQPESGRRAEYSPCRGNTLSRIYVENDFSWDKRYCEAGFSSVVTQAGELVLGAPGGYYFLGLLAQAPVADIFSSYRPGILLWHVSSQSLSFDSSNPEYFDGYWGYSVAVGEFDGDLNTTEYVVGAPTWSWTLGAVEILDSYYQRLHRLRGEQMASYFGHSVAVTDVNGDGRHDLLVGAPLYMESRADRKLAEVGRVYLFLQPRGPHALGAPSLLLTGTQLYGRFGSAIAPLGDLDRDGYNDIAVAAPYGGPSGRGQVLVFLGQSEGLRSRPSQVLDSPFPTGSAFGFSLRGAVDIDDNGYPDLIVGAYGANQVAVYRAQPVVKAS

[5] = biological target: T3, β3 subunit PSI, hybrid, βI, and I-EGF-1 domains (UniProt P05106); assay: crystal structure
T3 sequence: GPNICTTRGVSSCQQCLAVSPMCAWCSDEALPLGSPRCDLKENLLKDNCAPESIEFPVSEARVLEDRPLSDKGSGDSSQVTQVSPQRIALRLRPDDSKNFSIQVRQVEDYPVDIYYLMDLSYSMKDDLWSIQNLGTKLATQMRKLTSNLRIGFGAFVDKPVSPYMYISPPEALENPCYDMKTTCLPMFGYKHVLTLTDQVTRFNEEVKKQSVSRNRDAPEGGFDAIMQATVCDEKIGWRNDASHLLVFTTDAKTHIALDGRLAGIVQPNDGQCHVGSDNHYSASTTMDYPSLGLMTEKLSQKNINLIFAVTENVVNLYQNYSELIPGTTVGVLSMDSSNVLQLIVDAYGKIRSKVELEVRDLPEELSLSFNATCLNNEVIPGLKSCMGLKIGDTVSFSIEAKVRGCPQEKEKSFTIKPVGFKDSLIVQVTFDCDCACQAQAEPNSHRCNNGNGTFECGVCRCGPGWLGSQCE

Molecule: GRGDSP peptide
Kd [1]: 0.34 to 10 mM | fold higher affinity of the open than of the closed headpiece [1]: > 200 fold

Molecule: N=C(N)NCCC[C@H](NC(=O)CN)C(=O)NCC(=O)N[C@@H](CC(=O)O)C(=O)N[C@@H](CO)C(=O)N1CCC[C@H]1C(=O)O [GRGDSP]
Bound ligand / occupation of the ligand binding site [2]: diffraction revealed bound peptide

B1: MAdCAM-1: ligand binding to the α4β7 headpiece (protein, UniProt Q13477 19-382, looked up)
Mucosal addressin cell …: QSLQVKPLQVEPPEPVVAVALGASRQLTCRLACADRGASVQWRGLDTSLGAVQSDTGRSVLTVRNASLSAAGTRVCVGSCGGRTFQHTVQLLVYAFPDQLTVSPAALVPGDPEVACTAHKVTPVDPNALSFSLLVGGQELEGAQALGPEVQEEEEEPQGDEDVLFRVTERWRLPPLGTPVPPALYCQATMRLPGLELSHRQAIPVLHSPTSPEPPDTTSPESPDTTSPESPDTTSQEPPDTTSPEPPDKTSPEPAPQQGSTHTPRSPGSTRTRRPEISQAGPTQGEVIPTGSSKPAGDQLPAALWTSSAVLGLLLLALPTYHLWKRCRHLAEDDTHPPASLRLLPQVSAWAGLRGTGQVGISPS
State of the headpiece upon binding (α4β7 headpiece): either an intermediate or open state

Continued, values first:

binding result [3]: binds
Molecule: GRGDSPK [GRGDSPK peptide]

binding result [4]: binds | binding result [5]: binds
Molecule: GRGDSP [GRGDSP peptide]
